Results reported in US20020058247A1 (TRIPEP, published 2002).

Tests used:
[1] = molecular target: T1, truncated recombinant form of HBeAg containing nine residues of pre-core and the 150 first residues of HBcAg (hepatitis B virus, UniProt P03146 1-150); assay: EIA, HBeAg on solid phase, fusion peptide 20 ug/well, gG2 mAb detection
T1 construct: domain: nine residues of pre-core;range 1-150; also called hepatitis B virus e antigen

[2] = molecular target: serum HBeAg in HBeAg-transgenic mice (hepatitis B virus); assay: cell-based or functional assay
[3] = molecular target: T2, Full length recombinant HBcAg (rHBcAg) encompassing residues 1-183 (hepatitis B virus, UniProt P03146 1-183); assay: competition EIA, HBcAg coated 1 ug/ml, peptide 200 ug/ml before mAb 4-2 (competitor); OD of bound mAb
T2 construct: range 1-183; also called hepatitis B virus core antigen

[4] = molecular target: T2, Full length recombinant HBcAg (rHBcAg) …; assay: EIA, support-bound peptide, HBcAg 0.2 ug/well
[5] = molecular target: T2, Full length recombinant HBcAg (rHBcAg) …; assay: competition EIA, HBcAg coated 1 ug/ml, peptide 50 ug/ml before mAb 4-2 (competitor); OD of bound mAb
[6] = molecular target: T2, Full length recombinant HBcAg (rHBcAg) …; assay: competition EIA, HBcAg coated 1 ug/ml, peptide 6.25 ug/ml before mAb 4-2 (competitor); OD of bound mAb
[7] = molecular target: T2, Full length recombinant HBcAg (rHBcAg) …; assay: competition EIA, HBcAg coated 1 ug/ml, peptide 25 ug/ml before mAb 4-2 (competitor); OD of bound mAb
[8] = molecular target: T2, Full length recombinant HBcAg (rHBcAg) …; assay: competition EIA, HBcAg coated 5 ug/ml, peptide 50 ug/ml together with mAb 4-2 (competitor); OD of bound mAb
[9] = molecular target: T2, Full length recombinant HBcAg (rHBcAg) …; assay: competition EIA, HBcAg coated 5 ug/ml, peptide 200 ug/ml together with mAb 4-2 (competitor); OD of bound mAb
[10] = molecular target: T2, Full length recombinant HBcAg (rHBcAg) …; assay: competition EIA, HBcAg coated 5 ug/ml, peptide 6.25 ug/ml together with mAb 4-2 (competitor); OD of bound mAb
[11] = molecular target: T2, Full length recombinant HBcAg (rHBcAg) …; assay: competition EIA, HBcAg coated 5 ug/ml, peptide 12.5 ug/ml together with mAb 4-2 (competitor); OD of bound mAb
[12] = molecular target: T2, Full length recombinant HBcAg (rHBcAg) …; assay: EIA, support-bound peptide, HBcAg 2 ug/well
[13] = molecular target: T2, Full length recombinant HBcAg (rHBcAg) …; assay: competition EIA, HBcAg coated 5 ug/ml, peptide 25 ug/ml together with mAb 4-2 (competitor); OD of bound mAb
[14] = molecular target: T3, non-structural 3 protein (NS3) of the hepatitis C virus (HCV) (hepatitis C virus); assay: EIA, support-bound peptide, HCV NS3 control
T3 construct: Control antigen; also called HCV NS3

[15] = molecular target: T2, Full length recombinant HBcAg (rHBcAg) …; assay: competition EIA, HBcAg coated 5 ug/ml, peptide 100 ug/ml together with mAb 4-2 (competitor); OD of bound mAb
[16] = molecular target: T2, Full length recombinant HBcAg (rHBcAg) …; assay: competition EIA, HBcAg coated 1 ug/ml, peptide 100 ug/ml before mAb 4-2 (competitor); OD of bound mAb
[17] = molecular target: T2, Full length recombinant HBcAg (rHBcAg) …; assay: competition EIA, HBcAg coated 1 ug/ml, peptide 12.5 ug/ml before mAb 4-2 (competitor); OD of bound mAb
[18] = molecular target: T1, truncated recombinant form of HBeAg …; assay: EIA, support-bound peptide, HBeAg 20 ug/ml
[19] = molecular target: T1, truncated recombinant form of HBeAg …; assay: EIA, support-bound peptide, HBeAg 5 ug/ml
[20] = molecular target: T2, Full length recombinant HBcAg (rHBcAg) …; assay: EIA, peptide coated 12.5 ug/ml, HBcAg 10 ug/ml
[21] = molecular target: T1, truncated recombinant form of HBeAg …; assay: EIA, support-bound peptide, HBeAg 0.67 ug/ml
[22] = molecular target: T2, Full length recombinant HBcAg (rHBcAg) …; assay: EIA, peptide coated 3.125 ug/ml, HBcAg 10 ug/ml
[23] = molecular target: T1, truncated recombinant form of HBeAg …; assay: EIA, support-bound peptide, HBeAg 10 ug/ml
[24] = molecular target: T1, truncated recombinant form of HBeAg …; assay: EIA, support-bound peptide, HBeAg 2.5 ug/ml
[25] = molecular target: T2, Full length recombinant HBcAg (rHBcAg) …; assay: EIA, support-bound peptide, HBcAg 5 ug/ml
[26] = molecular target: T2, Full length recombinant HBcAg (rHBcAg) …; assay: EIA, peptide coated 25 ug/ml, HBcAg 10 ug/ml
[27] = molecular target: T2, Full length recombinant HBcAg (rHBcAg) …; assay: EIA, peptide coated 6.25 ug/ml, HBcAg 10 ug/ml
[28] = molecular target: T2, Full length recombinant HBcAg (rHBcAg) …; assay: EIA, support-bound peptide, HBcAg 1.25 ug/ml
[29] = molecular target: T2, Full length recombinant HBcAg (rHBcAg) …; assay: EIA, support-bound peptide, HBcAg 2.5 ug/ml
[30] = molecular target: T1, truncated recombinant form of HBeAg …; assay: EIA, support-bound peptide, HBeAg 1.25 ug/ml
[31] = molecular target: T2, Full length recombinant HBcAg (rHBcAg) …; assay: EIA, support-bound peptide, HBcAg 0.67 ug/ml
[32] = molecular target: T2, Full length recombinant HBcAg (rHBcAg) …; assay: EIA, peptide coated 50 ug/ml, HBcAg 10 ug/ml
[33] = molecular target: T2, Full length recombinant HBcAg (rHBcAg) …; assay: EIA, support-bound peptide, HBcAg 10 ug/ml
[34] = molecular target: T2, Full length recombinant HBcAg (rHBcAg) …; assay: EIA, support-bound peptide, HBcAg 20 ug/ml
[35] = molecular target: T2, Full length recombinant HBcAg (rHBcAg) …; assay: EIA, peptide coated 100 ug/ml, HBcAg 10 ug/ml

T2 sequence (P03146 whole entry, the tested form may be a part): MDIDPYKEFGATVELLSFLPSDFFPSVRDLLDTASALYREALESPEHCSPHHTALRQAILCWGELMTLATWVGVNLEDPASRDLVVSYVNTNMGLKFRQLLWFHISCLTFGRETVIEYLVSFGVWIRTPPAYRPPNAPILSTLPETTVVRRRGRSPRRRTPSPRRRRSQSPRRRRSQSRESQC
Sequence of serum HBeAg in HBeAg-transgenic mice (hepatitis B virus) (P0C573 20-183): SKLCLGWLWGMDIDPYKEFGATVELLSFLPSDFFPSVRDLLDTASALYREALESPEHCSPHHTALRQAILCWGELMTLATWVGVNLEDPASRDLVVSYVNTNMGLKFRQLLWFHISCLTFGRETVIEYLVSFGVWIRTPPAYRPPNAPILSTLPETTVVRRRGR
T1 sequence (P03146 1-150): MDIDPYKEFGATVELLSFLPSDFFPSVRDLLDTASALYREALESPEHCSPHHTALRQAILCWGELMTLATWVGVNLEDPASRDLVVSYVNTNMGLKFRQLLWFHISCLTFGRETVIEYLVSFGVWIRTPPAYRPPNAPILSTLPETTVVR

B1: KLSCKASGYIFTSRGGPEEFE (SEQ. ID. No. 72) (peptide)
peptide: KLSCKASGYIFTSRGGPEEFE
notes: also called fusion peptide
In the case of B1, the “gG2 mAb binding (OD)” value [1] is reported as 0.04 OD.

B2: KLSCKASGYIFTSEHRGGPEE (SEQ. ID. No. 70) (peptide)
peptide: KLSCKASGYIFTSEHRGGPEE
notes: also called fusion peptide
For B2, the “gG2 mAb binding (OD)” value [1] was 0.022 OD.

B3: VKLSCKASGYIFTSGGPEEFE (SEQ. ID. No. 76) (peptide)
peptide: VKLSCKASGYIFTSGGPEEFE
notes: also called fusion peptide
With B3 the “gG2 mAb binding (OD)” value [1] was 0.024 OD.

B4: VKLSCKASGYIFTSHRGGPEE (SEQ. ID. No. 74) (peptide)
peptide: VKLSCKASGYIFTSHRGGPEE
In the case of B4, the “gG2 mAb binding (OD)” value [1] is reported as 1.73 OD, the “Fold change in serum HBeAg levels by EIA in HBeAg-Tg mice, day 0” value [2] is reported as 1 fold and the “Fold change in serum HBeAg levels by EIA in HBeAg-Tg mice, day 1” value [2] is reported as 1.5 fold. For the same binder, the “Fold change in serum HBeAg levels by EIA in HBeAg-Tg mice, day 3” value [2] was 2.3 fold, the “Fold change in serum HBeAg levels by EIA in HBeAg-Tg mice, day 6” value [2] was 2.3 fold and the “Fold change in serum HBeAg levels by EIA in HBeAg-Tg mice, day 9” value [2] was 3.3 fold.

B5: QQKPGQPPKLLIKYASNLES (SEQ. ID. No. 19) (peptide)
peptide: QQKPGQPPKLLIKYASNLES
B5 was tested, and the “OD at 490 nm” value [3] was 0.368 OD, the “OD at 405 nm” value [4] was 0.064 OD and the “OD at 490 nm” value [5] was 0.383 OD. For the same binder, the “OD at 490 nm” value [6] was 0.336 OD, the “OD at 490 nm” value [7] was 0.406 OD and the “OD at 490 nm” value [8] was 1.23 OD. The “OD at 490 nm” value [9] was 0.925 OD, the “OD at 490 nm” value [10] was 1.06 OD and the “OD at 490 nm” value [11] was 1.24 OD. The “OD at 405 nm” value [12] was 0.299 OD, the “OD at 490 nm” value [13] was 1.24 OD and the “OD at 405 nm” value [14] was 0.016 OD. For the same binder, the “OD at 490 nm” value [15] was 1.11 OD, the “OD at 490 nm” value [16] was 0.394 OD and the “OD at 490 nm” value [17] was 0.391 OD.

B6: KLSCKASGYIFTSHRGGPEEF (SEQ. ID. No. 71) (peptide)
peptide: KLSCKASGYIFTSHRGGPEEF
notes: also called fusion peptide
With B6 the “gG2 mAb binding (OD)” value [1] was 0.638 OD.

B7: VKLSCKASGYIFTSEHRGGPE (SEQ. ID. No. 73) (peptide)
peptide: VKLSCKASGYIFTSEHRGGPE
notes: also called fusion peptide
With B7 the “gG2 mAb binding (OD)” value [1] was 0.029 OD.

B8: YNMNWVKQSHGKSLEWIGNI (SEQ. ID. No. 30) (peptide)
peptide: YNMNWVKQSHGKSLEWIGNI
notes: also called Peptide # 27
B8 gave an OD [18] of 0.04 OD, an OD [19] of 0.029 OD and an OD [20] of 0.181 OD. The OD [21] was 0.018 OD, the OD [22] was 0.168 OD and the OD [23] was 0.037 OD. The “OD at 405 nm” value [4] was 0.114 OD, the OD [24] was 0.032 OD and the OD [25] was 0.059 OD. It also gave an OD [26] of 0.162 OD, an OD [27] of 0.175 OD and an OD [28] of 0.026 OD. For the same binder, the “OD at 405 nm” value [12] was 0.157 OD, the OD [29] was 0.042 OD and the OD [30] was 0.021 OD. It also gave an OD [31] of 0.02 OD, an OD [32] of 0.17 OD and an OD [33] of 0.115 OD. The OD [34] was 0.305 OD, the “OD at 405 nm” value [14] was 0.021 OD and the OD [35] was 0.151 OD.
